# According to article doi:10.1101/546648:
# Target: OrnVc (oligoribonuclease) (Vibrio cholerae O1 El Tor?) (UniProt Q9KV17)
# Test: DRaCALA
# Conditions: 5' phosphate
substance,measurement,value
"pGpG (GG, 2-mer)",Kd,0.09 µM
